For assay [1], the target named is LptB2F^R212GG complex (Escherichia coli) (UniProt P0A9V1). As to the kind of experiment: SPR; LptB2FG or LptB2F^R212GG covalently immobilised, increasing concentrations of monomeric LptA flowed over; fitted at equilibrium; details in Text S1. Background: SPR reads the build-up and loss of mass on a sensor chip optically.
Assay [2] addresses LptB2FG complex (Escherichia coli) (UniProt P0A9V1). Described as above.

In publication PMC9972910 one finds Kd data, which are given here for one substance.

As usually defined, the Kd is the constant that tells how readily two partners part at equilibrium. As for “monomeric version of LptA (from UniProt P0ADV1 28-159) (domain or fragment)”, the results for the Kd in assay [1] and in assay [2] were 81 µM and 74 µM, respectively.
